B1: 14-3-3 protein sigma (Homo sapiens), P31947 (parent)
chain: MERASLIQKAKLAEQAERYEDMAAFMKGAVEKGEELSCEERNLLSVAYKNVVGGQRAAWRVLSSIEQKSNEEGSEEKGPEVREYREKVETELQGVCDTVLGLLDSHLIKEAGDAESRVFYLKMKGDYYRYLAEVATGDDKKRIIDSARSAYQEAMDISKKEMPPTNPIRLGLALNFSVFHYEIANSPEEAISLAKTTFDEAMADLHTLSEDSYKDSTLIMQLLRDNLTLWTADNAGEEGGEAPQEPQS
partner: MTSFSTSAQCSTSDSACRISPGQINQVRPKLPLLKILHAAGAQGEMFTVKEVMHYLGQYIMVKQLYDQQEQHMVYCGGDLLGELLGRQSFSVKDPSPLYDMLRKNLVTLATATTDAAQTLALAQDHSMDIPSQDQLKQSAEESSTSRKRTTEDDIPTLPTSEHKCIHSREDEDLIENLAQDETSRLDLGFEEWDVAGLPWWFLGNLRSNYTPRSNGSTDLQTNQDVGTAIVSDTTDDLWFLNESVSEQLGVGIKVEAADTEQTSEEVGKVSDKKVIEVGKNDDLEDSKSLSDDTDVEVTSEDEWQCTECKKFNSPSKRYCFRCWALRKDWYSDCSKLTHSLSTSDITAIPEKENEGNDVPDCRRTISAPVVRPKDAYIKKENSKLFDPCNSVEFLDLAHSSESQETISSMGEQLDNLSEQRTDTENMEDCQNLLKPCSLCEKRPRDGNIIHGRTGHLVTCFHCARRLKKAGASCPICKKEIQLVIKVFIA
B2: 14-3-3 protein sigma (Homo sapiens), P31947 (parent)
chain: B1 chain
partner: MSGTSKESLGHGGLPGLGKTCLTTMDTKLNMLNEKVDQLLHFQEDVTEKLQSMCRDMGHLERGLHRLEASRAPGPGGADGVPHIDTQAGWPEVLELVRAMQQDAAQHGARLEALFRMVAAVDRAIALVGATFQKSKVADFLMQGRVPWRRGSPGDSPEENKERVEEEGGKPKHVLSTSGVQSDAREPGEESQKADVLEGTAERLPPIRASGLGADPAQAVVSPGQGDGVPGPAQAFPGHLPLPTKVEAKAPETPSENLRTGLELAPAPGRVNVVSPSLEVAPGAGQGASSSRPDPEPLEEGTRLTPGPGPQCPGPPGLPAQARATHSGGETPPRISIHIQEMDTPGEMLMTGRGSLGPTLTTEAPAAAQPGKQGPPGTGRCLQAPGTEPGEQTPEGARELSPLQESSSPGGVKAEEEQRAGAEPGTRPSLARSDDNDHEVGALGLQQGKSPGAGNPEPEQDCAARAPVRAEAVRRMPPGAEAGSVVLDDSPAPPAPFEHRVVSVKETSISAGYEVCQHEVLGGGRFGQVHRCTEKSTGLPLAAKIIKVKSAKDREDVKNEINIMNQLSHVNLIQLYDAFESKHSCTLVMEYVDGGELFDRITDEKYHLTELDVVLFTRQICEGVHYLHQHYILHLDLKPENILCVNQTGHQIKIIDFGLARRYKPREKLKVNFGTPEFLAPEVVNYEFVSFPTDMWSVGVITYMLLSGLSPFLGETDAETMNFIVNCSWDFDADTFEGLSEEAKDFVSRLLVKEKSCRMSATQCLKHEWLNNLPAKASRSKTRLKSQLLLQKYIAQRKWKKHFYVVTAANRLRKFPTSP
B3: 14-3-3 protein sigma (Homo sapiens), P31947 (parent)
chain: B1 chain
partner: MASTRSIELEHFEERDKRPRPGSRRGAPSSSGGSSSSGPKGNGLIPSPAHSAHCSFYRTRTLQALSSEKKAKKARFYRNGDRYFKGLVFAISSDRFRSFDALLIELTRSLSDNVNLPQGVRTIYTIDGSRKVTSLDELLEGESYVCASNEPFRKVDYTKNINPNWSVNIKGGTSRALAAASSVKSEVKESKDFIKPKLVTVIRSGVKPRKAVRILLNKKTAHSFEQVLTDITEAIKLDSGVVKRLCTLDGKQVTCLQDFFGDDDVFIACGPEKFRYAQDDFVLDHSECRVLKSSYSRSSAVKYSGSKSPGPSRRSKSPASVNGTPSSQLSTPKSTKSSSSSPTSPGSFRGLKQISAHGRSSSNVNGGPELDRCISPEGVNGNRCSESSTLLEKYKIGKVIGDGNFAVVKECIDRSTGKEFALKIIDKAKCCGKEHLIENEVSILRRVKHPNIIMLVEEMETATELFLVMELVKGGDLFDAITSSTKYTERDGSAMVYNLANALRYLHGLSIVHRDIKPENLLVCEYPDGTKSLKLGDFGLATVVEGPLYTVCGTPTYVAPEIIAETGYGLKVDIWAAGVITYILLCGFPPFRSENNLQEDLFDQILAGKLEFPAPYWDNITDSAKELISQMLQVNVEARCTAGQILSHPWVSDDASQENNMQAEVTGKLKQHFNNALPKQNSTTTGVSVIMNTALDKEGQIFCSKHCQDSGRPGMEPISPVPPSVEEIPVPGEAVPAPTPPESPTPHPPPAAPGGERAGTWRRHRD
B4: 14-3-3 protein sigma (Homo sapiens), P31947 (parent)
chain: B1 chain
partner: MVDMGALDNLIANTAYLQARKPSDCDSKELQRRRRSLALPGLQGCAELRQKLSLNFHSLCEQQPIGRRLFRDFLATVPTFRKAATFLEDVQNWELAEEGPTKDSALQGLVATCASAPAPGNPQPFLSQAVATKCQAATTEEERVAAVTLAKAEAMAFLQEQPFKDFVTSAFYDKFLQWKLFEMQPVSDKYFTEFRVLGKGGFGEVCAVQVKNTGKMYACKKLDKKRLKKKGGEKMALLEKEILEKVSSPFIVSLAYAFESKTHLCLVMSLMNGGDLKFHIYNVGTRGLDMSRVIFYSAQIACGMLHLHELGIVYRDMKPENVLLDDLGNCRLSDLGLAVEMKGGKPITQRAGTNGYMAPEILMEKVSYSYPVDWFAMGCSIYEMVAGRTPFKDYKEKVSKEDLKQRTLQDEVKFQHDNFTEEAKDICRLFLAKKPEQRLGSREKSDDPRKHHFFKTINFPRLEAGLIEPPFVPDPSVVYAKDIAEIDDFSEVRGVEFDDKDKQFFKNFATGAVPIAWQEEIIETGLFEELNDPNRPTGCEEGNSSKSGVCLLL
B5: 14-3-3 protein sigma (Homo sapiens), P31947 (parent)
chain: B1 chain
partner: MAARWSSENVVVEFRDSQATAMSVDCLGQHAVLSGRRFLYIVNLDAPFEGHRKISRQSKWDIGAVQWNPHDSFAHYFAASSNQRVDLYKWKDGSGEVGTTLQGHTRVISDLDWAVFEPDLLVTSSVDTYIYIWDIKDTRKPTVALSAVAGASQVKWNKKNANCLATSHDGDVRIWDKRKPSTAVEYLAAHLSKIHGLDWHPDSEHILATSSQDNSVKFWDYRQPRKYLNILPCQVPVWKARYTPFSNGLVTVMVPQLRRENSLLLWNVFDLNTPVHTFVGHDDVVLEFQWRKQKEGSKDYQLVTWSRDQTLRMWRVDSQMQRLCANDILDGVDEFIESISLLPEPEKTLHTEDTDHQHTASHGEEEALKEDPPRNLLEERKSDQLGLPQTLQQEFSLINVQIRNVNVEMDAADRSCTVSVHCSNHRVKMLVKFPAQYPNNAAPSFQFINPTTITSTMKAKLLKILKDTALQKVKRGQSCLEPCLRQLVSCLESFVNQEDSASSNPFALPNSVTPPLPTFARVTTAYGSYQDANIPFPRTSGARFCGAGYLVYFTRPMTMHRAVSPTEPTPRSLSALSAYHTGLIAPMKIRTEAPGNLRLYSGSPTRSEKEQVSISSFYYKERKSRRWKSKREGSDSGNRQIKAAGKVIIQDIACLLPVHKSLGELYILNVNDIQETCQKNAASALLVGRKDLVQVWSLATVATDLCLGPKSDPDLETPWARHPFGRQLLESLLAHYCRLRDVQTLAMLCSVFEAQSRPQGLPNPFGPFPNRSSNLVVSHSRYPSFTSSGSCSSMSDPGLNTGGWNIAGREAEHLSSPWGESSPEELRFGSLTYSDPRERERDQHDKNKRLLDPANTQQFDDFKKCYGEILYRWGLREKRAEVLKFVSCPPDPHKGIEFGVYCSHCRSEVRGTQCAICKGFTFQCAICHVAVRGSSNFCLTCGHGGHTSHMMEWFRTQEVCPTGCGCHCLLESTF
B6: 14-3-3 protein sigma (Homo sapiens), P31947 (parent)
chain: B1 chain
partner: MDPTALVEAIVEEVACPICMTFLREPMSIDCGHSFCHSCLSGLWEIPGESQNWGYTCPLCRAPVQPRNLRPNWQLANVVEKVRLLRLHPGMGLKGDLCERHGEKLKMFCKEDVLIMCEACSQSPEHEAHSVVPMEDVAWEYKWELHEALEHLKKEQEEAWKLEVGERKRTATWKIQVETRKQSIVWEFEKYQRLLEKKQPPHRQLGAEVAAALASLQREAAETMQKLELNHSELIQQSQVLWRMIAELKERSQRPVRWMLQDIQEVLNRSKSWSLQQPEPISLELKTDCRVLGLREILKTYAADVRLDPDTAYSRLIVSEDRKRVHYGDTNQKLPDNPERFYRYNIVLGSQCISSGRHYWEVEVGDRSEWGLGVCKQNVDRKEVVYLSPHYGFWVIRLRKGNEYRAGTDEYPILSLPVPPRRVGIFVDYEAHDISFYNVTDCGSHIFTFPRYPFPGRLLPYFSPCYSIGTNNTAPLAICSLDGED
B7: 14-3-3 protein sigma (Homo sapiens), P31947 (parent)
chain: B1 chain
partner: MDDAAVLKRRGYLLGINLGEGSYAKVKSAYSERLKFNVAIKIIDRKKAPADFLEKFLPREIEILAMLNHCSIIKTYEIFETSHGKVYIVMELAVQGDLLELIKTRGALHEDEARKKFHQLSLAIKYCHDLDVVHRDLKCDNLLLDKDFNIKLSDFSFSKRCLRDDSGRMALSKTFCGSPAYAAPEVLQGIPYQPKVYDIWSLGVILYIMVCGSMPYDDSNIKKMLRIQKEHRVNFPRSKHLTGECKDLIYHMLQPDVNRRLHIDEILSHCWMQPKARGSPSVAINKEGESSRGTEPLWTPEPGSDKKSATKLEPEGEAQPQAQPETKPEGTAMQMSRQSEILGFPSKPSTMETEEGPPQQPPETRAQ
B8: 14-3-3 protein sigma (Homo sapiens), P31947 (parent)
chain: B1 chain
partner: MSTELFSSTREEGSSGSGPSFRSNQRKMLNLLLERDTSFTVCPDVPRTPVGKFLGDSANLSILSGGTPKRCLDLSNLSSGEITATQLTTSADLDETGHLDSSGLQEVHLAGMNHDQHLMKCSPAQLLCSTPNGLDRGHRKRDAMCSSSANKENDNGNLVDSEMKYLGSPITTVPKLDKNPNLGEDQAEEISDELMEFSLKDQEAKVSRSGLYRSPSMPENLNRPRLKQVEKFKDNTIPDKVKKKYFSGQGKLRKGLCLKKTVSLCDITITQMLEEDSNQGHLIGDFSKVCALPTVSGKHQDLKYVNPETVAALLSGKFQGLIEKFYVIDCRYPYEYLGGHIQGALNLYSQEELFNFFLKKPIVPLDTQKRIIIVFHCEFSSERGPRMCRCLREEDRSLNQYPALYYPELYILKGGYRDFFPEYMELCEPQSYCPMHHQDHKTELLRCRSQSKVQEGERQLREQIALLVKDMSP

The variants in the first assay derive from B1. To be noted: with mdm4_human MDM4, O15151.
With K49E;R56E;V178D, the “effect of a mutation on the interaction” value is “decreasing interaction strength”.

The variants in the next assay derive from B2. Particulars: with mylk3_human MYLK3, Q32MK0.
With K49E;R56E;V178D, the “effect of a mutation on the interaction” value is reported as “decreasing interaction strength”.

A further assay covers variants of B3. Particulars: with dclk2_human DCLK2, Q8N568.
Consider K49E;R56E;V178D, for which the “effect of a mutation on the interaction” value is “decreasing interaction strength”.

Variants of B4 are the subject of another assay. To be noted: with grk7_human GRK7, Q8WTQ7.
Consider K49E;R56E;V178D, for which the “effect of a mutation on the interaction” value was “decreasing interaction strength”.

A further assay covers variants of B5. To be noted: with wdr59_human WDR59, Q6PJI9.
With K49E;R56E;V178D, the “effect of a mutation on the interaction” value is reported as “decreasing interaction strength”.

In a further assay the parent is B6. Particulars: with tri68_human TRIM68, Q6AZZ1.
For the variant K49E;R56E;V178D, the “effect of a mutation on the interaction” value is recorded as “decreasing interaction strength”.

Variants of B7 are the subject of the next assay. Particulars: with tssk1_human TSSK1B.
K49E;R56E;V178D: the “effect of a mutation on the interaction” value is given as “decreasing interaction strength”.

In a further assay the parent is B8. To be noted: with mpip3_human CDC25C.
K49E;R56E;V178D: the “effect of a mutation on the interaction” value is recorded as “decreasing interaction strength”.

These data come from IntAct's records for PubMed 36931259.
